The nature of the data set: label from the status in PepcDB records.
As for “MADRLIVRGAREHNLKNVSLDLPRDSLIVFTGLSGSGKSSLAFDTIFAEGQRRYVESLSSYARQFLGQMDKPDVDFIEGLSPAVSIDQKSTSRNPRSTVGTITEVYDYLRLLFARIGKPHCPECGRPISRQSPQAIVDKVLELPEGSRFQVLSPLVRERKGEFVDLFADLQTKGYSRARVDGETVQLSNPPTLKKQEKHTIEVVVDRLTVKDSAKRRLTDSVETALGLSGGMVVLDFVDLPEDDPERERMYSEHLYCPYDDLSFEELEPRSFSFNSPFGACPDCSGIGTRMEVDAELIVPDEDKSLDEGAIHPWSHGHTKDYFGRLIGALADALGFRTDIPFAGLPLRARKALLYGHKTQVEVRYRNRYGRERRYTTAFEGAIPFVKRRHSEAESDASRERFEGYMREVPCPTCQGTRLKPLVLAVTVMGKSIAEVSAMSISDCADFLGELTLNARDKKIAERVLKEVNERLRFLVDVGLDYLSLNRAAGTLSGGEAQRIRLATQIGSGLVGVLYVLDEPSIGLHQRDNHRLIETLVRLRDMGNTLIVVEHDEDTIKVADWIVDIGPGAGEHGGKVVHSGSVKELLDNAESQTGLYLSGRKAIPLPDIRRPQDPSRRLTVHGARENNLQDIDVSFPLGVFTAVTGVSGSGKSTLVNDILYTHLARELNGARNVPGRHTRVDGDDLVDKVVHVDQSPIGRTPRSNPATYTGVFDHIRKLFAETTEAKVRGYLPGRFSFNVKGGRCENCAGDGTIKIEMNFLPDVYVPCEVCHGARYNRETLEVHYKGKSIADVLNMPIEEATDFFEAVPAISRHMKTLKDVGLGYVRLGQSATTLSGGEAQRVKLASELQRRSTGRTVYVLDEPTTGLHFEDISKLLTVLGGLVDKGNTVIVIEHNLDVIKTADWVVDMGPEGGAGGGLVVAEGTPEQVAGVPASHTGKFLRDVLGADRVSDAAPVTRPRKAAKTVAAKAAAKKTATKTVTGTAAKKATATRTAKTAVKKAAKPAAKKTTRTSKA”, the protein production result is reported as “failed”. In the case of “GVPPSQGDLEYQMSTTARAKRVREAMCPGVSGEGQLALLATQVEGQATNLQRLAEPSQLLKSAIVHLINYQDDAELVTRALPELTKLLNDEDPVVVTKAAMIVNQLSKKEASRRALMGSPQLVAAVVRTMQNTSDLDTARCTTSILHNLSHHREGLLAIFKSGGIPALVRMLSSPVESVLFYAITTLHNLLLYQEGAKMACAGRRAQKMVPLLNKNNPKFLAITTDCLQLLAYGNQESKLIILANGGPQALVQIMRNYSYEKLLWTTSRVLKVLSVCPSNKPAIVEAGGMQALGKHLTSNSPRLVQNCLWTLRNLSDVATKQEGLESVLKILVNQLSVDDVNVLTCATGTLSNLTCNNSKNKTLVTQNSGVEALIHAILRAGDKDDITEPAVCALRHLTSRHPEAEMAQNSVRLNYGIPAIVKLLNQPNQWPLVKATIGLIRNLALCPANHAPLQEAAVIPRLVQLLVKAHQDAQRHVAAGTQQPYTDGVRMEEIVEGCTGALHILARDPMNRMEIFRLNTIPLFVQLLYSSVENIQRVAAGVLCEL” it was “failed”; in that of “MKFFSLADEAEFKSIIISKNKAVDVIGSKLGGQVVSFSDEWFASAENLIQPTAPIRDPTRFVHSGAWYDGWETRRHNEMEYDWVIIKMGVAAAHIIGGEIDTAFFNGNHAPFVSIEALYDEGEEGNIVEDDSRWVEIVEKFECGPSQRHLFVRGNGLTKERFTHIKLKMYPDGGIARFRLYGRVVPPELKTKDHIIDLAYVCNGAVALKYSDQHFGSVDNLLLPGRGHDMSDGWETKRSRQPGHTDWAVIQLGRESSFIEKIIVDTAHFRGNFPQFITVEGCLKESESSENTGEGTWVELVGKSKTGPDKEHVYEIRKSIRVSHVKLTIIPDGGVKRIRVWGY”, “not failed”; in that of “MPPPLPYDAMRSVWTDTAAPAMATAPLAGHADCDVAIVGAGITGLSAALHLAERGLRACVLEARDPGWGASGRNGGQVIPGIKHDPDEILARHGRERGEPLLHMVGTAADTVFDLIDRYGLDLVQAQIRLAAGERLDRVVPADLQPSGHAIELRVYAEDPVRFIPSPGTLAVFELPQGPGVRTETGYHAGNAVSPHYDPMIAKIIVHGADRAQAIARAEQALADTEIAGVKTNLPFLARALAFEPWRQGRLHTGIVARTLAEPAPAALTALEHHHHHH”, “failed”. For “MSLKRILIVDDDTAILDSTKQILEFEGYEVEIAATAGEGLAKIENEFFNLALFDIKLPDMEGTELLEKAHKLRPGMKKIMVTGYASLENSVFSLNAGADAYIMKPVNPRDLLEKIKEKLDEQEKEGHHHHHH” the value was “not failed”.

For the origin of these results see a protein production outcome set (Wang et al. 2014).
